This is an account of results in US8158376B2, “Bisubstrate fluorescent probe binding to protein kinases” (University of Tartu, priority 2006, dated 2012).

Where two headings read alike, the source gives them in different places.

Common to all, as to assay: Kinase selectivity panel
Holding throughout (format): biochemical

In series [1] the target is T1, CHK1 (Homo sapiens, UniProt O14757).
T1 sequence (O14757 1-476): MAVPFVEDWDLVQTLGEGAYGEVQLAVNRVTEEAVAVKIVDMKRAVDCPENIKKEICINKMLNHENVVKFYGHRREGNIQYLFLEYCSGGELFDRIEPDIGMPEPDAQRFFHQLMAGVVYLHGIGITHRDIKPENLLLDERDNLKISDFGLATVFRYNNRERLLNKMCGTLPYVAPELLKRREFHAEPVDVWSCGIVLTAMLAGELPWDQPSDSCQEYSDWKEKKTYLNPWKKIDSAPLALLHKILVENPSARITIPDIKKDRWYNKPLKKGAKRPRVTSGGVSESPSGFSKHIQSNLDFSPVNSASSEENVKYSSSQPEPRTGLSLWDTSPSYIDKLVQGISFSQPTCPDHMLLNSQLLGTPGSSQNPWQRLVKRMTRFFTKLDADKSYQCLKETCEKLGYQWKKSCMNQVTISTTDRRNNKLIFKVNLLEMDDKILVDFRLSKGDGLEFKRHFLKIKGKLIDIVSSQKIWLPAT
To be noted: read-out: residual activity (%) CHK1. The method, then:
(§1) The panel of kinases included all 52 kinases available for testing.
(§2) The assay of protein kinases was performed at 30° C. as described previously [Davies et al., Biochem. J. 351 (2000) 95; Murray et al., Biochem. J. 384 (2004) 477].

Series [2] has as its target CHK2 (Homo sapiens, UniProt O96017). To be noted: read-out: residual activity (%) CHK2. The method, then: as §1, §2
For series [3], the target named is DYRK1a (Homo sapiens, UniProt Q13627). As to conditions: read-out: residual activity (%) DYRK1a. The method, then: as §1, §2
Series [4] has as its target T2, IKKb (Homo sapiens, UniProt O14920).
T2 sequence (O14920 1-756): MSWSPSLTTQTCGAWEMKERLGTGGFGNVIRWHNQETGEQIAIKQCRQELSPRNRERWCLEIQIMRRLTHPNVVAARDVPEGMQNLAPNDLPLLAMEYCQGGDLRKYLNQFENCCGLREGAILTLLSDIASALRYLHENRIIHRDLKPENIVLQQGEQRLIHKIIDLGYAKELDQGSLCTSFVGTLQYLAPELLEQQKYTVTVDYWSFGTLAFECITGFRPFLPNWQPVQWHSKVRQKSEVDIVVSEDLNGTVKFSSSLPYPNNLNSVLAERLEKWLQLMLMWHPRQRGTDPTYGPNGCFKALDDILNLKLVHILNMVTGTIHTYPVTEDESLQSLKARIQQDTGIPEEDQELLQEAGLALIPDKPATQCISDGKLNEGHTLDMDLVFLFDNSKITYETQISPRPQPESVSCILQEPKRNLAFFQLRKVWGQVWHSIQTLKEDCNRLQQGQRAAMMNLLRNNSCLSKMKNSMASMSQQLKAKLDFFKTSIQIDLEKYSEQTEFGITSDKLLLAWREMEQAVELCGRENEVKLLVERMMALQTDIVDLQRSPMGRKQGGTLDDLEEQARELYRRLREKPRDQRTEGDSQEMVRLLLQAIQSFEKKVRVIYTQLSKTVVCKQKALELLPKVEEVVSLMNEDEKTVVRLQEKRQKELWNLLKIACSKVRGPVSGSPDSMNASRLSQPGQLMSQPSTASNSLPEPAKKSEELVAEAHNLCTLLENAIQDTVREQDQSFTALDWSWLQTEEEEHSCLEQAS
To be noted: read-out: residual activity (%) IKKb. Here is the method:
as §1, §2

The target of series [5] is Lck (Homo sapiens, UniProt P06239). As to conditions: read-out: residual activity (%) Lck. Here is the method:
as §1, §2

The target in series [6] is MAPKAP-K1b/rsk-2 (Homo sapiens, UniProt P51812). To be noted: ATP 50 μM. The method, then:
as §1, §2

Series [7] concerns the target MAPKAP-K2 (Homo sapiens, UniProt P49137). As to conditions: read-out: residual activity (%) MAPKAP-K2. Here is the method: as §1, §2
Series [8] deals with T3, MST2 (Homo sapiens, UniProt Q13188).
T3 sequence (Q13188 1-491): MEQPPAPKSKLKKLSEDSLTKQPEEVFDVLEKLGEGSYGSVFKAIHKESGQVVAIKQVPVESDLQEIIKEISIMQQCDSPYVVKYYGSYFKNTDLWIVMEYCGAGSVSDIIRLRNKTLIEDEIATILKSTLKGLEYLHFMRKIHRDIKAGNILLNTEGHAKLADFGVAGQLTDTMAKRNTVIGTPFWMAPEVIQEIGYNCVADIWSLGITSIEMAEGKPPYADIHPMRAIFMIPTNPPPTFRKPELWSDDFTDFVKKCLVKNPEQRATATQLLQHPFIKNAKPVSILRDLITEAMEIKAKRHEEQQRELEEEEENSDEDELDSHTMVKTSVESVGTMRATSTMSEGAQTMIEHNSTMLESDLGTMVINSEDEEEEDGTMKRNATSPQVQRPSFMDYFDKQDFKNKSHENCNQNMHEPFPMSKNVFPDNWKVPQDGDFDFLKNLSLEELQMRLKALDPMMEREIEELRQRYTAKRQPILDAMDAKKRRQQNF
To be noted: read-out: residual activity (%) MST2. The method, then: as §1, §2

The target in series [9] is P70 S6K (Homo sapiens, UniProt P23443). To be noted: ATP 20 μM. The method, then: as §1, §2
Series [10] has as its target PIM2 (Homo sapiens, UniProt Q9P1W9). As to conditions: read-out: residual activity (%) PIM2. Here is the method:
as §1, §2

Series [11] concerns the target SRPK1 (Homo sapiens, UniProt Q96SB4). As to conditions: read-out: residual activity (%) SRPK1. Here is the method: as §1, §2
For series [12], the target named is smMLCK (Homo sapiens, UniProt Q15746). As to conditions: read-out: residual activity (%) smMLCK. The method, then: as §1, §2

Chain of P70 S6K (P23443 whole entry): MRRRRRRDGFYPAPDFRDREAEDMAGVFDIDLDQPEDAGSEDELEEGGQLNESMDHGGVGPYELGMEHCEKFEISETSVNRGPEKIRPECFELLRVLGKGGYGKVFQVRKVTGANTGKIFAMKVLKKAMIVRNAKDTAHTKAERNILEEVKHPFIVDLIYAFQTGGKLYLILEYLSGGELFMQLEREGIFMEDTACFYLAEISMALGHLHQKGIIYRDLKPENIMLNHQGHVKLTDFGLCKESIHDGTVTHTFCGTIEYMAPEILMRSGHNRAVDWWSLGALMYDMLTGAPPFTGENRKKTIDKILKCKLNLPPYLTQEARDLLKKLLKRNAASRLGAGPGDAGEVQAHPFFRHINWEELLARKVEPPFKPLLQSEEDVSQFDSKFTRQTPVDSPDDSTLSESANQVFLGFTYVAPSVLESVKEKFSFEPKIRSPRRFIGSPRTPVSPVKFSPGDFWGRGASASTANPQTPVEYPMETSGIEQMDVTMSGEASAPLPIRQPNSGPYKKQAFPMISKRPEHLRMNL
Chain of MAPKAP-K1b/rsk-2 (P51812 whole entry): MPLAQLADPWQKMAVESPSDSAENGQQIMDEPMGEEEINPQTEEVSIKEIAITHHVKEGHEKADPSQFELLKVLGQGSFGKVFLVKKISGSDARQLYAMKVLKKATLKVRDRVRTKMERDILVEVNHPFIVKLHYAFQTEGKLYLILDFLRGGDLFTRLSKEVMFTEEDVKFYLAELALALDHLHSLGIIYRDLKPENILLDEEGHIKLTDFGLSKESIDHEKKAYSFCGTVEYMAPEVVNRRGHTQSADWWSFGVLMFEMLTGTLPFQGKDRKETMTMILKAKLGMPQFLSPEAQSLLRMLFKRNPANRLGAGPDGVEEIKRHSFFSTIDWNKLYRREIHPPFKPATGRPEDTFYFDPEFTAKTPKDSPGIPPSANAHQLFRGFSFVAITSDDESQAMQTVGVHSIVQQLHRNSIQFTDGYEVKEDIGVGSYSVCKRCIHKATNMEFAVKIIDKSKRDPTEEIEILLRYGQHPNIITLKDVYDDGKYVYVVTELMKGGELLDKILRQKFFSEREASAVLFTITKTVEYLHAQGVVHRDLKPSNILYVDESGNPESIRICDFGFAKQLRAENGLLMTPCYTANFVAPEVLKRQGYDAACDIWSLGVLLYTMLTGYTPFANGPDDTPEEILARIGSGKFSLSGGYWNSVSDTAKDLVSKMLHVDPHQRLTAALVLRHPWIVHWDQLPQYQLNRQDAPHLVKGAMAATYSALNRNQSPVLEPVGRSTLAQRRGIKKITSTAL
Chain of MAPKAP-K2 (P49137 whole entry, species assumed): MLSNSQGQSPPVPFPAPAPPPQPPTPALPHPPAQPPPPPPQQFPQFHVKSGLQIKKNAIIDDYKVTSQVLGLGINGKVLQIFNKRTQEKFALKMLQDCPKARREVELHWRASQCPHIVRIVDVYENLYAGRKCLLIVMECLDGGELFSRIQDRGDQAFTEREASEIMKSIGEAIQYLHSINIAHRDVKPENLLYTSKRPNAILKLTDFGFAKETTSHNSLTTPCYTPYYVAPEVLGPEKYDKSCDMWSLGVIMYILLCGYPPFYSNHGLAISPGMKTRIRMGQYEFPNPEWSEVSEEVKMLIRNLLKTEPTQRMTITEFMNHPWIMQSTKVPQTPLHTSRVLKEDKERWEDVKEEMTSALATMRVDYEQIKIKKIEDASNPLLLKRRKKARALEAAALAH
Chain of CHK2 (O96017 whole entry, species assumed): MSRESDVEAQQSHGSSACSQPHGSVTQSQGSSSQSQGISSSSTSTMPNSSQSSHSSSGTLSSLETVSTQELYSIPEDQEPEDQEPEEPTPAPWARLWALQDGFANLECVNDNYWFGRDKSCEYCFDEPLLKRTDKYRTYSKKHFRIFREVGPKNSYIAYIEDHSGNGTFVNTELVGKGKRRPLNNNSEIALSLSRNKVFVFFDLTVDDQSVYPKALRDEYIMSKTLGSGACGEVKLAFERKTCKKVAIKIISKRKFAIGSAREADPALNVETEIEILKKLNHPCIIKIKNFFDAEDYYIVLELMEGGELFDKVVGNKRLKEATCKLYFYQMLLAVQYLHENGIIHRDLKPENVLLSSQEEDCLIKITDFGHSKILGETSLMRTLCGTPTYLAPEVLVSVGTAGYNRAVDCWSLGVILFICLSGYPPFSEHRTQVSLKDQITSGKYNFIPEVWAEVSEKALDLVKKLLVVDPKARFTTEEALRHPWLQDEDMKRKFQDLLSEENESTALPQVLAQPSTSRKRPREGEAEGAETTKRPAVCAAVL
Chain of SRPK1 (Q96SB4 whole entry, species assumed): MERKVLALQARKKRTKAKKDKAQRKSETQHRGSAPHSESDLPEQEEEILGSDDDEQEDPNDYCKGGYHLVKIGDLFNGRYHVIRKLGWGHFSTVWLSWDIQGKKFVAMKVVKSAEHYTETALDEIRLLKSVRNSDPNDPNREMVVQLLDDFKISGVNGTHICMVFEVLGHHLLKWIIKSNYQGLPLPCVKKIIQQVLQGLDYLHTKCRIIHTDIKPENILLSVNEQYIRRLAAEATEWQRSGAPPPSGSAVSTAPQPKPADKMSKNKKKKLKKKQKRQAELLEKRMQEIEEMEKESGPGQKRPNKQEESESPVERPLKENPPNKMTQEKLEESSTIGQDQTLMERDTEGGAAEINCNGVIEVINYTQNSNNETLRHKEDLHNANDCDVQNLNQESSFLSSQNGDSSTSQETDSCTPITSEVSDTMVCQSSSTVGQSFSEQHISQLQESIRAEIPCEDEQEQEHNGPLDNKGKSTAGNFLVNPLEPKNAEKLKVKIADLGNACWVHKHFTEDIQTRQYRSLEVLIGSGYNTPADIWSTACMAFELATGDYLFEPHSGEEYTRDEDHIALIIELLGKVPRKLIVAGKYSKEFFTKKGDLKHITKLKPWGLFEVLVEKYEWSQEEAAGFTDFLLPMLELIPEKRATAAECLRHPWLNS
Chain of Lck (P06239 whole entry, species assumed): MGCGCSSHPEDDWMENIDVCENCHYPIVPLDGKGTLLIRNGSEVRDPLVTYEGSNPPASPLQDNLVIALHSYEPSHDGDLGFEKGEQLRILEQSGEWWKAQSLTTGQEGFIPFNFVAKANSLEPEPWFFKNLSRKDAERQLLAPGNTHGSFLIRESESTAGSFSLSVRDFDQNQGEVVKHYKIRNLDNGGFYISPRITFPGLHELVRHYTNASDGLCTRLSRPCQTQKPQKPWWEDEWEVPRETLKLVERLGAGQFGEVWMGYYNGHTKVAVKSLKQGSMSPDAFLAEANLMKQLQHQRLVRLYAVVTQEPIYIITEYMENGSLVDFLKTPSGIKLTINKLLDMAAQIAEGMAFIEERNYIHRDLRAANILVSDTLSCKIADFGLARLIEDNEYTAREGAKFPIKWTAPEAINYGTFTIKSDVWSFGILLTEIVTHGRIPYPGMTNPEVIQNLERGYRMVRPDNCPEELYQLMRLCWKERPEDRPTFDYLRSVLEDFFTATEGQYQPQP
Chain of PIM2 (Q9P1W9 whole entry, species assumed): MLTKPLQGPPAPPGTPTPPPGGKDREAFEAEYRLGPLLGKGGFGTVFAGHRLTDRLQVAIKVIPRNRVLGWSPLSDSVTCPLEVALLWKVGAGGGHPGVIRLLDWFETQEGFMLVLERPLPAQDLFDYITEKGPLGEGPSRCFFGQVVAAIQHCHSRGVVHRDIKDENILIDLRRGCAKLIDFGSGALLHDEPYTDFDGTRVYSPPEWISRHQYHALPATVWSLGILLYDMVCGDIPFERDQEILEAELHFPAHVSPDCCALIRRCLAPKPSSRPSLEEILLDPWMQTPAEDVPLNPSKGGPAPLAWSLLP

In the case of `N=C(N)NCCC[C@@H](NC(=O)[C@@H](CCCNC(=N)N)NC(=O)[C@@H](CCCNC(=N)N)NC(=O)[C@@H](CCCNC(=N)N)NC(=O)[C@@H](CCCNC(=N)N)NC(=O)[C@@H](CCCNC(=N)N)NC(=O)CCCCCNC(=O)[C@H]1O[C@@H](n2cnc3c(N)ncnc32)[C@H](O)[C@@H]1O)C(N)=O` [Compound 5, AdcAhx(D-Arg)6-NH2], the remaining activity at 1 µM in [1] was 16%; in [2], 14%; in [3] it was 72%; in [4], 94%; in series [5], 70%; in series [6] (read-out: residual activity (%) MAPKAP-K1b/rsk-2, inhibitor 1 μM), 7 to 28%. For the same compound, the remaining activity at 1 µM in series [7] is 85%; in [8], 77%; in series [9] (read-out: residual activity (%) P70 S6K, inhibitor 1 μM) it was 7 to 28%; in [10] it was 38%; in series [11], 100%; in series [12], 72%. Moreover, in [6] (inhibitor 1 μM), the “residual activity (%) MAPKAP-K1b/rsk-2” value is 12 (±0) %. In [9] (inhibitor 1 μM), the “residual activity (%) P70 S6K” value is recorded as 7 (±2) %.
`N=C(N)NCCC[C@@H](NC(=O)[C@@H](CCCNC(=N)N)NC(=O)[C@@H](CCCNC(=N)N)NC(=O)[C@@H](CCCNC(=N)N)NC(=O)[C@@H](CCCNC(=N)N)NC(=O)[C@@H](CCCNC(=N)N)NC(=O)CCCCCNCCNS(=O)(=O)c1cccc2cnccc12)C(N)=O` [Compound 26, H9-Hex(D-Arg)6-NH2]: the remaining activity at 1 µM in series [1] (inhibitor 1 μM, ATP 20 μM) stood at 31%; in [2] (inhibitor 1 μM, ATP 20 μM), 22%; in series [3] (inhibitor 1 μM, ATP 50 μM) it was 69%; in series [4] (inhibitor 1 μM, ATP 5 μM), 87%; in [5] (inhibitor 1 μM, ATP 50 μM), 88%; in series [6] (inhibitor 1 μM, read-out: residual activity (%) MAPKAP-K1b/rsk-2), 2%. The remaining activity at 1 µM was 80% in series [7] (inhibitor 1 μM, ATP 20 μM); 24% in [8] (inhibitor 1 μM, ATP 20 μM); 2% in series [9] (inhibitor 1 μM, read-out: residual activity (%) P70 S6K); less than 10% in series [10] (inhibitor 1 μM, ATP 5 μM); 99% in series [11] (inhibitor 1 μM, ATP 50 μM); 90% in series [12] (inhibitor 1 μM, ATP 50 μM).
